Consider four molecules from patent US20200261603A1 (Astellas, published 2020).

Assay [1] addresses T1, human cancer-specific MUC1 (human, UniProt P15941 24-1255, cancer-specific incomplete O-glycosylation (T, Tn, 2,3ST) of threonine at position 9 of the 20-amino acid tandem repeat … (SEQ ID NO: 15), as the background describes it).
T1 construct: whole, on cells; also called Mucin 1; human MUC1
In words: Cell ELISA on formalin-fixed T-47D cells, HRP anti-human Igκ, luminescence. In general terms: ELISA stands for enzyme-linked immunosorbent assay.

Assay [2] concerns the target T1, human cancer-specific MUC1. Put plainly: immunostaining of a human bladder cancer tissue array, 0.25 µg/mL primary antibody, Polymer-HRP/DAB.

B1: P10-2 Fab (Fab, V domains shown)
VH: QVQLVQSGAEVKKPGASVKVSCKASGYTFTNYGLSWVRQAPGQGLEWMGENHPGSGIIYHNEKFRGRVTLTADRSTSTAYMELSSLRSEDTAVYYCARSSGTRGFDYWGQGTLVTVSS
VL: DVVMTQTPLSLSVTPGQPASISCRSSQSIVHSNGNTYLEWYLQKPGQSPQLLIYRVSNRFSGVPDRFSGSGSGTDFTLKISRVEAEDVGVYYCFQGSHGPWTFGQGTKLEIKR
modifications: heavy chain N-terminal glutamine was modified into pyroglutamic acid in a great majority of purified antibodies
notes: expressed in Expi293F cells; also called anti-human MUC1 antibody Fab fragment P10-2
Turning to B1, the “fold binding activity compared to 1B2 Fab” value in assay [1] was ≥ 10 times (vs 1B2 Fab).

B2: mouse chimeric P10-2 IgG (antibody, V domains shown)
VH: QVQLVQSGAEVKKPGASVKVSCKASGYTFTNYGLSWVRQAPGQGLEWMGENHPGSGIIYHNEKFRGRVTLTADRSTSTAYMELSSLRSEDTAVYYCARSSGTRGFDYWGQGTLVTVSS
VL: DVVMTQTPLSLSVTPGQPASISCRSSQSIVHSNGNTYLEWYLQKPGQSPQLLIYRVSNRFSGVPDRFSGSGSGTDFTLKISRVEAEDVGVYYCFQGSHGPWTFGQGTKLEIKR
notes: Antibody in which the VH and VL domains of P10-2 Fab were fused with mouse IgG2a CH1 to CH3 domains and a mouse κ chain CL domain; not shown: mouse IgG2a CH1 to CH3 domains; mouse κ chain CL domain
Take B2: in assay [2], the binding result is “binds”.

B3: P10-1 Fab Dye (Fab, V domains shown)
VH: QVQLVQSGAEVKKPGASVKVSCKASGYTFTNYGLSWVRQAPGQGLEWMGENHPGSGIIYHNEKFRGRVTLTADRSTSTAYMELSSLRSEDTAVYYCARSSGTRGFAYWGQGTLVTVSS
VL: DVVMTQTPLSLSVTPGQPASISCRSSQSIVHSNGNTYLEWYLQKPGQSPQLLIYRVSNRFSGVPDRFSGSGSGTDFTLKISRVEAEDVGVYYCFQGSHGPWTFGQGTKLEIKR
modifications: IRDye800CW (NHS ester) on Lys of the Fab fragment; number and positions not stated
notes: also called IRDye800CW-labeled P10-1 Fab
For B3, the binding result in assay [1] is listed as “binds”.

B4: P10-1 Fab (Fab, V domains shown)
VH: QVQLVQSGAEVKKPGASVKVSCKASGYTFTNYGLSWVRQAPGQGLEWMGENHPGSGIIYHNEKFRGRVTLTADRSTSTAYMELSSLRSEDTAVYYCARSSGTRGFAYWGQGTLVTVSS
VL: DVVMTQTPLSLSVTPGQPASISCRSSQSIVHSNGNTYLEWYLQKPGQSPQLLIYRVSNRFSGVPDRFSGSGSGTDFTLKISRVEAEDVGVYYCFQGSHGPWTFGQGTKLEIKR
notes: expressed in Expi293F cells; also called anti-human MUC1 antibody Fab fragment P10-1
On to B4, for which the “fold binding activity compared to 1B2 Fab” value in assay [1] was ≥ 10 times (vs 1B2 Fab).
